Laboratory results reported in publication PMC9038204 (PLoS Biology, 2022).

B1: isolated FERM domain of human SNX27 (domain or fragment, UniProt Q96L92 269-531, looked up)
chain: YNGVSDVELRVALPDGTTVTVRVKKNSTTDQVYQAIAAKVGMDSTTVNYFALFEVISHSFVRKLAPNEFPHKLYIQNYTSAVPGTCLTIRKWLFTTEEEILLNDNDLAVTYFFHQAVDDVKKGYIKAEEKSYQLQKLYEQRKMVMYLNMLRTCEGYNEIIFPHCACDSRRKGHVITAISITHFKLHACTEEGQLENQVIAFEWDEMQRWDTDEEGMAFCFEYARGEKKPRWVKIFTPYFNYMHECFERVFCELKWRKENIFQM
notes: FERM domain of human SNX27; pET-28a, TEV site between His-tag and SNX27; also called hSNX27_(FERM); source: E. coli BL21 (DE3), purified (TALON or Ni-NTA, SEC, Mono Q)

Key:
Settings in all cases: both partners purified
full-length mouse SNX27 [1] = biological target: T1, full-length mouse SNX27 (mouse, UniProt Q3UHD6 1-539); experiment: ITC; 800 μM SNX1 or SNX2 peptide titrated into 20 μM mSNX27FL; 25°C; 50 mM HEPES pH 7.5, 200 mM NaCl, 5% glycerol, 1 mM β-ME with 1:10 peptide buffer (100 mM Tris-HCl pH 10.6); single-site model
T1 construct: sorting nexin-27 (SNX27), mouse; also called mSNX27FL

[2] = biological target: T2, full-length mouse SNX1 with an amino-terminal His-tag (mouse, UniProt Q9WV80 1-522); experiment: ITC; 800 μM hSNX27 FERM titrated into 20 μM GST-mSNX1(1-139) or His-SNX1FL; 25°C; 50 mM HEPES pH 7.5, 200 mM NaCl, 5% glycerol, 1 mM β-ME; single-site model
T2 construct: sorting nexin-1 (SNX1), mouse; vector pMW172Kan; also called mSNX1FL; His-SNX1FL; source: E. coli BL21 CodonPlus (DE3), purified (TALON or Ni-NTA, SEC); not shown: His-tag, N-terminal, kept

human SNX27 K496D = biological target: T3, human SNX27 K496D (human, UniProt Q96L92 1-541, K496D); experiment: ITC; 600 μM SNX1 75-92 peptide titrated into 20 μM hSNX27 wild-type or single-site mutant; 25°C; 50 mM HEPES pH 7.5, 200 mM NaCl, 5% glycerol, 1 mM β-ME; single-site model
T3 construct: human SNX27 single-site mutant; printed as R496D in the text and as K496D in the legend and the methods; also called hSNX27 K496D; SNX27(R496D); source: E. coli BL21 (DE3), purified (TALON or Ni-NTA, SEC)

[3] = biological target: T4, full-length human SNX27, wild-type (human, UniProt Q96L92 1-541); experiment: as above
T4 construct: sorting nexin-27 (SNX27), human; pET-28a, TEV site between His-tag and SNX27; also called hSNX27FL; hSNX27 WT; source: E. coli BL21 (DE3), purified (TALON or Ni-NTA, SEC)

full-length mouse SNX27 [4] = biological target: T5, full-length mouse SNX27 (mouse, UniProt Q3UHD6 1-539); experiment: ITC; 800 μM hSNX1 or hSNX2 peptide (syringe) titrated into 20 μM mSNX27FL (cell); 25°C; 50 mM HEPES pH 7.5, 200 mM NaCl, 5% glycerol, 1 mM β-ME with 1:10 peptide buffer (100 mM Tris-HCl pH 10.6); single-site model
T5 construct: sorting nexin-27 (SNX27), mouse, full length; pMCSG7 vector by ligation-independent cloning; also called mSNX27FL

[5] = biological target: T6, full-length human SNX27, wild type (human, UniProt Q96L92 1-541); experiment: ITC; 600 μM hSNX1(75-92) peptide (syringe) titrated into 20 μM hSNX27FL wild type or single-site mutant (cell); 25°C; 50 mM HEPES pH 7.5, 200 mM NaCl, 5% glycerol, 1 mM β-ME; single-site model
T6 construct: sorting nexin-27 (SNX27), human, full length; also called hSNX27FL; hSNX27 WT

[6] = biological target: B1; experiment: ITC; 800 μM hSNX27 FERM titrated into 20 μM GST-mSNX1(1-139) or His-SNX1FL; 25°C; 50 mM HEPES pH 7.5, 200 mM NaCl, 5% glycerol, 1 mM β-ME; single-site model

Kd (full-length mouse SNX27 [1]) [µM] | Kd (full-length mouse SNX27 [4]) [µM] | Binder | further results
22.6 | – | TEVVLDDDREDLFAEATEEVS (human SNX2 residues 62 to 82; also called second aDLF motif of SNX2; source: synthetic peptide (Genscript)) [SNX2_(62-82) peptide] | –
– | – | B1 | Kd [2]: 41 µM
13.3 | – | NGIHEEQDQEPQDLFADA (human SNX1 residues 75 to 92; also called second aDLF motif of human SNX1; source: synthetic peptide (Genscript)) [SNX1_(75-92) peptide] | Kd (human SNX27 K496D): 56.4 µM; Kd [3]: 12.7 µM
– | 22.6 ± 1.89 | TEVVLDDDREDLFAEATEEVS (sorting nexin-2 (SNX2), human, residues 62 to 82; also called hSNX2 62-82; SNX2_(62-82); source: synthetic peptide (Genscript)) [human SNX2 peptide, residues 62-82 (second aDLF motif)] | –
33.4 | – | EAGDSDTEGEDIFTGAA (human SNX1 residues 35 to 51; also called first aDLF motif of human SNX1; source: synthetic peptide (Genscript)) [SNX1_(35-51) peptide] | –
37.8 | – | TDFEDLEDGEDLFTSTVS (human SNX2 residues 16 to 33; also called first aDLF motif of SNX2; source: synthetic peptide (Genscript)) [SNX2_(16-33) peptide] | –
– | 33.4 ± 1.89 | EAGDSDTEGEDIFTGAA (sorting nexin-1 (SNX1), human, residues 35 to 51; also called hSNX1 35-51; SNX1_(35-51); source: synthetic peptide (Genscript)) [human SNX1 peptide, residues 35-51 (first aDLF motif)] | –
– | 13.4 ± 0.75 | NGIHEEQDQEPQDLFADA (sorting nexin-1 (SNX1), human, residues 75 to 92; also called hSNX1 75-92; SNX1_(75-92); source: synthetic peptide (Genscript)) [human SNX1 peptide, residues 75-92 (second aDLF motif)] | Kd [5]: 12.8 ± 0.47 µM
– | – | GST-mSNX1(1-139) (domain or fragment, mouse, UniProt Q9WV80 1-139, looked up, mouse SNX1 residues 1 to 139; vector pGEX4T-2, thrombin-cleavable GST; eluted with glutathione and named GST-mSNX1(1-139) in the ITC; also called amino-terminal extension of mouse SNX1; source: E. coli BL21 CodonPlus (DE3), purified (glutathione Sepharose, SEC); not shown: GST, N-terminal, kept) MASGGGGCSASERLPPPFPGMDPESEGAAGASEPEAGDSDTEGEDIFTGAAAATKPQSPKKTTSLFPIKNGSKENGIHEDQDQEPQDLFADATVELSLDSTQNNQKTMPGKTLTSHSPQEATNSPKPQPSYEELEEEEQ | Kd [6]: 39.1 µM
